Stoichiometry N data for one molecule are collected here from paper doi:10.1101/2025.09.19.677273.

The target in this assay is c8-ring of the Fo domain (bovine (endogenous in bovine heart mitochondria)), P32876. The experiment in a line: cryo-EM structure. The conditions noted are these: remark: other sources report otherwise.

Usually stoichiometry N stands for the number of molecules, sites or subunits per partner or assembly.

B1: c8-ring of the Fo domain, P32876 62-136 (natural protein)
chain: DIDTAAKFIGAGAATVGVAGSGAGIGTVFGSLIIGYARNPSLKQQLFSYAILGFALSEAMGLFCLMVAFLILFAM
Regarding B1, the stoichiometry N was 8.
